Data: patent CN108727490A (UNIV TSINGHUA; GUANGZHOU 8TH PEOPLES HOSPITAL, dated 2018)

Molecular target: T1, E-His6融合蛋白 (寨卡病毒 (Zika virus), UniProt A0A024B7W1 292-693)
T1 construct: also called 寨卡病毒的E蛋白; E蛋白
Test: ELISA screen of memory B cell culture supernatants on coated E-His6 fusion protein; the antibody genes were cloned from positive wells

T1 sequence (A0A024B7W1 292-693, tags left off): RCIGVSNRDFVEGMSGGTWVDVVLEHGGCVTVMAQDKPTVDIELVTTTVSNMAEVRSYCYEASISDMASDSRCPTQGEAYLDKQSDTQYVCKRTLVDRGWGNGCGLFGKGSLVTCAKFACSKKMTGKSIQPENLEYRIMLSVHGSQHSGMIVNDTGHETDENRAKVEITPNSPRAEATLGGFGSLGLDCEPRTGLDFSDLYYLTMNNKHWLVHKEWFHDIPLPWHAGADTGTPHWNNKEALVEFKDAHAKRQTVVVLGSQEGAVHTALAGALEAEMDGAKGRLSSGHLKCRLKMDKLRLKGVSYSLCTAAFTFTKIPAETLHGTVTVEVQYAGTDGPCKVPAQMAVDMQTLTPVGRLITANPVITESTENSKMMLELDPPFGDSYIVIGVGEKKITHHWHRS

B1: 单克隆抗体ZK2B10 (antibody, human IgG1, lambda, V domains shown)
VH: EVQLVQSGAEVKKPGASVKVSCKASGYTFTSGHTFPSYDINWVRQATGQGLEWMGWMNPNRGNTGYAQKFQGRVTMTRNTSINTAYMELSSLRSEDTAVYYCARVRSGTNYGSYYYYYYGMDVWGQGTTVTVSS
VL: SYELTQPPSASGTPGQRVTISCSGSSSNIGNNYVHWYQQLPGSAPKLLIYRNNQRPSGVPDRFSGSKSGTSGSLAISGLRSEDEADYYCASWDDSLSGHWVFGGGTKVTVLG
notes: also called ZK2B10抗体; IgG抗体
Q: Does B1 bind?
A: binds
